PMC11924951 (The Journal of Experimental Medicine, 2025)
Blank lines part the entries; values can stand above or below the binder they belong to.

Experiments:
Details in all cases: both partners purified
[1] = biological target: T1, Fc-tagged IFNα1 (human, UniProt P0DY56); experiment: BLI; blocking format: IFN-I preincubated 1 h at room temperature with rontalizumab (1:50), sifalimumab (1:50) or plasma (1:10) in assay buffer with 50% goat serum; His-tagged IFNAR1 or IFNAR2 loaded on Ni-NTA biosensors, blocked in 100% goat serum; association 120 s
T1 construct: interferon alpha-1 (IFNα1), human; source: bought: ACROBiosystems (IFA-H5258)

[2] = biological target: T2, His-tagged IFNAR1 (human, UniProt P17181 28-436); experiment: BLI; His-tagged IFNAR1 (25 nM) or IFNAR2 (100 nM) loaded on Ni-NTA biosensors for 600 s; IFN-I in solution, association 60-120 s, dissociation 120 s; 0.02% Tween-20, 0.1% BSA in 1x PBS, pH 7.4; Octet R2
T2 construct: interferon alpha/beta receptor 1 (IFNAR1), human; Soluble recombinant receptor subunit loaded on Ni-NTA biosensors; source: bought: ACROBiosystems (IF1-H5225)
T2 sequence (looked up): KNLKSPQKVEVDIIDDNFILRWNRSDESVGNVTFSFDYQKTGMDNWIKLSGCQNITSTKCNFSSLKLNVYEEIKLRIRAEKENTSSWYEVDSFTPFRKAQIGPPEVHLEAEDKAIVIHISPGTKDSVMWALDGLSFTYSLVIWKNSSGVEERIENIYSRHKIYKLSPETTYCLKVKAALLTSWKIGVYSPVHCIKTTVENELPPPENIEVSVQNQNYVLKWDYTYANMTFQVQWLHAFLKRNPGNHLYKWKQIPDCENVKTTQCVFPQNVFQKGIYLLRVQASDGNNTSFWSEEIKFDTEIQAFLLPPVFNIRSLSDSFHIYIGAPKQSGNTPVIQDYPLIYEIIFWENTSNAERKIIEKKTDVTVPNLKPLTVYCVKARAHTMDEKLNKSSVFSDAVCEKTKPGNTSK

[3] = biological target: T3, His-tagged IFNAR2 (human, UniProt P48551 27-243); experiment: as above
T3 construct: interferon alpha/beta receptor 2 (IFNAR2), human; Soluble recombinant receptor subunit loaded on Ni-NTA biosensors; source: bought: ACROBiosystems (IF2-H5224)
T3 sequence (looked up): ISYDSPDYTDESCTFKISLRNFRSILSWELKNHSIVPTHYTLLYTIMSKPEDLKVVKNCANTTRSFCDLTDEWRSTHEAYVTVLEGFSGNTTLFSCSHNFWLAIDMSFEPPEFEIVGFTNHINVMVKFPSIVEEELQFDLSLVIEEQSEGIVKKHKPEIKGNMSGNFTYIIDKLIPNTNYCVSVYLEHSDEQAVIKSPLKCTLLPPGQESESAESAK

binding result [1]: binds
B1: sifalimumab (antibody, V domains shown)
VH: QVQLVQSGAEVKKPGASVKVSCKASGYTFTSYSISWVRQAPGQGLEWMGWISVYNGNTNYAQKFQGRVTMTTDTSTSTAYLELRSLRSDDTAVYYCARDPIAAGYWGQGTLVTVSS
VL: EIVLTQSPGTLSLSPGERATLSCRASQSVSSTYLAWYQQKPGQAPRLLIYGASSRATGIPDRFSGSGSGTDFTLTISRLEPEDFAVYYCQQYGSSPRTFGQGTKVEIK
notes: source: bought: Thermo Fisher Scientific (MA5-41904)

binding result [2]: binds | binding result [3]: binds
B2: Fc-tagged IFNα1 (Fc fusion, human, UniProt P0DY56 24-189, looked up)
chain: CDLPETHSLDNRRTLMLLAQMSRISPSSCLMDRHDFGFPQEEFDGNQFQKAPAISVLHELIQQIFNLFTTKDSSAAWDEDLLDKFCTELYQQLNDLEACVMQEERVGETPLMNADSILAVKKYFRRITLYLTEKKYSPCAWEVVRAEIMRSLSLSTNLQERLRRKE
notes: interferon alpha-1 (IFNα1), human; source: bought: ACROBiosystems (IFA-H5258)

binding result [1]: binds
B3: rontalizumab (antibody, V domains shown)
VH: EVQLVESGGGLVQPGGSLRLSCATSGYTFTEYIIHWVRQAPGKGLEWVASINPDYDITNYNQRFKGRFTISLDKSKRTAYLQMNSLRAEDTAVYYCASWISDFFDYWGQGTLVTVSS
VL: DIQMTQSPSSLSASVGDRVTITCRASQSVSTSSYSYMHWYQQKPGKAPKVLISYASNLESGVPSRFSGSGSGTDFTLTISSLQPEDFATYYCQHSWGIPRTFGQGTKVEIK
notes: source: bought: Thermo Fisher Scientific (MA5-41908)
